Experimental data reported in US20160279299A1, “SILK FIBROIN-BASED FLUID DELIVERY SYSTEMS AND DEVICES” (TRUSTEES OF TUFTS COLLEGE, priority 2013, published 2016).

Tested on: fat grafts (human lipoaspirate)
Test: In-vivo murine model of adipose tissue reconstruction: lipoaspirate fat graft perfused via silk fibroin-based catheter and osmotic pump
Method: Female athymic nude mice were divided into 3 groups: animals treated with insulin (n=24), dexamethasone (n=15), or PBS vehicle (n=10). The groups were further subdivided into four different doses for insulin (e.g., ˜100 μg, ˜300 μg, ˜650 μg, or ˜1000 μg) or three different doses for dexamethasone (e.g., ˜1 mg/ml, ˜2 mg/ml, ˜3 mg/ml). Osmotic pumps that can deliver a fluid with a selected flow rate for a period of time were prepared with the insulin or dexamethasone solution or PBS vehicle. In this Example, ALZET 4-week osmotic pumps with a selected flow rate of ˜0.11 μl/hr were used. One end of the silk fibroin-based catheter was connected to the pump, e.g., using medical grade silicone (e.g., Dow Corning) (FIG. 8A). The silk catheter/pump construct was primed for 48 hours at 37° C., per manufacturer's instructions.
Lipoaspirate grafts were obtained from human subcutaneous abdominal fat during scheduled elective surgery and processed for injection under laboratory conditions. Lipoaspirate was loaded into ˜1 ml syringes in sterile fashion. Mice were anesthetized with 2% isoflurane in oxygen at the time of the procedure. Once the anesthetic plane was obtained, the animals were prepped for sterile surgery. Each animal received two bilateral ˜500 μl subcutaneous injections of lipoaspirate on the dorsal region, for example, through a 16G Coleman cannula using the fan-injection technique, which uniformly spreads the fat graft created beneath the cutaneous layer. For each animal, one of the two fat grafts received a silk fibroin-based catheter connected to an implantable osmotic pump. The silk catheter/pump was implanted subcutaneously through a small incision between the scapulae, and the fat graft was placed surrounding the silk fibroin-based catheter. The incision for the catheter/pump implantation was closed with a standard wound clip. To prevent and/or reduce pain and discomfort, mice were given subcutaneous injections of ˜5 mg/kg ketoprofen (Fort Dodge Animal Health, Fort Dodge, Iowa) immediately after the surgical procedure and every 24 hours as needed.
At 4 weeks post surgery, the mice were euthanized using carbon dioxide asphyxiation followed by cervical dislocation, and graft tissue was isolated from the bilateral dorsal injection sites. Explants were assessed for mass on a standard laboratory balance, and volume was measured using a gas pycnometer (Accupyc II 1340; Micrometrics, Atlanta, Ga.). Immediately after the dimensional analysis was complete, the tissue samples were fixed in 10% neutral buffered formalin and processed and embedded in paraffin.

Row | Molecule | survival of animals (highest insulin groups, ~1000 μg and ~650 μg) | group (dose) with the highest volume retention (insulin at ~0.11 μL/hr, 28 days post-implantation) [µg] | H&E: cellular response to the silk fibroin-based catheter (insulin doses, 28 days) | deaths (insulin ~300 μg group) | fat retention and adipogenesis (insulin ~300 μg group, 28 days) | H&E: tissue around the silk fibroin-based catheter (insulin ~1000 μg dose, 28 days) | volume retention of fat grafts, statistical significance (insulin ~100, ~300, ~650, ~1000 μg at ~0.11 μL/hr, 28 days post-implantation, gas pycnometry) | fat graft health / biocompatibility (insulin-treated mice, 4 weeks) | dose with the largest effect on fat graft volume (dexamethasone at ~0.11 μL/hr, 28 days post-implantation) [mg/mL] | adverse events during the therapy (mouse, in vivo)
1 | insulin | generally died during the study period | ~300 | little to no cellular response | no deaths due to drug overdose | trend toward fat retention and adipogenesis | a fibrous tissue was observed to surround the silk fibroin-based catheter | no statistical significance in volume retention | no evidence of oil cysts or adverse biocompatibility reaction | – | –
2 | C[C@@H]1C[C@H]2[C@@H]3CCC4=CC(=O)C=C[C@]4(C)[C@@]3(F)[C@@H](O)C[C@]2(C)[C@@]1(O)C(=O)CO [dexamethasone] | – | – | – | – | – | – | – | – | ~2 | no adverse events
